Test results: publication PMC3602352

Key:
[1] = biological target: L68A CzrA (Staphylococcus aureus); assay: SEC
[2] = biological target: L68V CzrA (Staphylococcus aureus); assay: SEC
[3] = biological target: V66A CzrA (Staphylococcus aureus); assay: SEC
[4] = biological target: V66A/L68V CzrA (Staphylococcus aureus); assay: SEC
V66A CzrA = V66A CzrA (Staphylococcus aureus, UniProt O85142 1-106, V66A); assay: fluorescence anisotropy
H96C CzrA = H96C CzrA (Staphylococcus aureus, UniProt O85142 1-106, H96C); assay: fluorescence anisotropy

Question: With L68A CzrA (natural protein) as the molecule, how does the stoichiometry N [1] read?
Answer: 2

Question: With L68V CzrA (natural protein) as the molecule, how does the stoichiometry N [2] read?
Answer: 2

Question: Which stoichiometry N [3] does the source give for V66A CzrA (natural protein) here?
Answer: 2

Question: Which stoichiometry N [4] does the source give for V66A/L68V CzrA (natural protein) here?
Answer: 2

B1: 28-bp native CzrO (dsDNA)
DNA 1: TAATATATGAACAAATATTCAGATGAAA
DNA 2: TTTCATCTGAATATTTGTTCATATATTA
Question: B1 was tested. Which binding signal (V66A CzrA) did it give?
Answer: 460 fold tighter than Zn2 wild-type CzrA

Question: Does B1 bind (H96C CzrA)?
Answer: binds
